Patent US20260242478A1 (published 2026)
Where no end group is shown, it is not given here.

B1: Phage-849 (peptide)
peptide: YCDGHSPEYMNKCL
notes: Peptide-87 library clone, tested as clonal phage supernatant
B2: Phage-859 (peptide)
peptide: YCEGHAIEYLAKCL
notes: Peptide-87 library clone, tested as clonal phage (peptide fused to pIII)
B3: Phage-876 (peptide)
peptide: YCDGHLQIYLWKCL
notes: not shown: pIII coat protein of the bacteriophage to which the peptide is fused
B4: Phage-869 (peptide)
peptide: YCAGHSAEYMAKCL
notes: as for B3
B5: Phage-884 (peptide)
peptide: YCDGHLQIYMHKCL
modifications: cysteine pairing not given here; also: fused to phage pIII
notes: not shown: pIII filament protein of the bacteriophage to which the peptide is fused
B6: Phage-854 (peptide)
peptide: YCEGHLPEYMQKCL
notes: as for B2
B7: Phage-862 (peptide)
peptide: YCEGHLPDYMQKCL
notes: as for B2
B8: Phage-853 (peptide)
peptide: YCSGHLPEYMQKCL
notes: as for B2
B9: Phage-878 (peptide)
peptide: YCDGHAAEYMDKCL
notes: as for B3
B10: Phage-880 (peptide)
peptide: YCAGHLPEYLDKCL
modifications: cysteine pairing not given here; also: fused to phage pIII
notes: as for B5
B11: Phage-874 (peptide)
peptide: YCDGHLSEYMAKCL
notes: as for B3
B12: Phage-883 (peptide)
peptide: YCAGHSAEYMWKCL
modifications: cysteine pairing not given here; also: fused to phage pIII
notes: as for B5
B13: Phage-875 (peptide)
peptide: YCEGHSEMYMKKCL
notes: as for B3
B14: Phage-848 (peptide)
peptide: YCHGHLQEYMAKCL
notes: as for B1
B15: Phage-870 (peptide)
peptide: YCDGHSGVYMWKCL
notes: as for B3
B16: Phage-882 (peptide)
peptide: YCDGHLVEYRGKCL
modifications: cysteine pairing not given here; also: fused to phage pIII
notes: as for B5
B17: Phage-865 (peptide)
peptide: YCAGHSQEHIQKCL
notes: as for B2
B18: Phage-851 (peptide)
peptide: YCEGHSAEYMLKCL
notes: as for B1
B19: Phage-864 (peptide)
peptide: YCEGHLQTYMAKCL
notes: as for B2
B20: Phage-879 (peptide)
peptide: YCEGHSVQYMQKCL
notes: as for B5
B21: Phage-866 (peptide)
peptide: YCDGHLPEYIFKCL
modifications: cysteine pairing not given here; also: fused to phage pIII coat protein (sequence and linker not given here)
notes: as for B3
B22: Phage-863 (peptide)
peptide: YCDGHLEEYMVKCM
notes: as for B2
B23: Phage-860 (peptide)
peptide: YCEGHSAEYMEKCL
notes: as for B2
B24: Phage-877 (peptide)
peptide: YCQGHLPVYMEKCL
notes: as for B3
B25: Phage-852 (peptide)
peptide: YCDGHHIEYLAKCL
notes: as for B1
B26: Phage-871 (peptide)
peptide: YCDGHTQAYIQKCL
notes: as for B3
B27: Phage-872 (peptide)
peptide: YCDGHAIQYIGKCL
notes: as for B3
B28: Phage-873 (peptide)
peptide: YCDGHAAEFMMKCL
notes: as for B3
B29: Phage-868 (peptide)
peptide: YCDGHAEEYLWKCL
modifications: cysteine pairing not given here; also: fused to phage pIII coat protein (sequence and linker not given here)
notes: as for B3
B30: Phage-855 (peptide)
peptide: YCDGHSLQYMDKCL
notes: as for B2
B31: Phage-858 (peptide)
peptide: YCDGHAEKYMQKCL
notes: as for B2
B32: Phage-850 (peptide)
peptide: YCDGHAPVYMAKCL
notes: as for B1
B33: Phage-856 (peptide)
peptide: YCDGHYPEYMSKCL
notes: as for B2
B34: Phage-867 (peptide)
peptide: YCSGHLPEYMGKCL
modifications: cysteine pairing not given here; also: fused to phage pIII coat protein (sequence and linker not given here)
notes: as for B3
B35: Phage-857 (peptide)
peptide: YCDGHASEYMAKCL
notes: as for B2
B36: Phage-881 (peptide)
peptide: YCDGHSREYMVKCL
modifications: cysteine pairing not given here; also: fused to phage pIII
notes: as for B5
B37: Phage-861 (peptide)
peptide: YCSGHSAEYMLKCL
notes: as for B2

What was measured:
[1] = target: T1, Anti-CD28 Fab (SEQ ID NOs: 696, 697); assay: phage binding ELISA, clonal phage on biotinylated anti-CD28 Fab captured on neutravidin plates, anti-M13 HRP detection
T1 construct: In the phage ELISA the Fab was biotinylated and captured on neutravidin coated plates
T1 sequence (VH, as listed by the source, chain 1 of 2): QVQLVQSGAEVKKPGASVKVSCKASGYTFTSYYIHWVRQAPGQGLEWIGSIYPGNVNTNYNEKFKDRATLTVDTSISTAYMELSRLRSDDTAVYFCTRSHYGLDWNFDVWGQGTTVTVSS
T1 sequence (VL, as listed by the source, chain 2 of 2): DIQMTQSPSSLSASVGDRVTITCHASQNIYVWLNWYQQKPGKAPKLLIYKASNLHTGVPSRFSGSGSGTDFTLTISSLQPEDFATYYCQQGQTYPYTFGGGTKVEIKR
Experimental: (§1) After panning, phage infected bacteria were plated out and colonies picked into 96 well blocks. Clonal phage was then amplified and separated from bacterial cells via centrifugation.
(§2) Clonal phage were harvested as crude supematants and screened via standard ELISAs. […] Prior to the addition of clonal phage, wells were incubated with blocking buffer and CD28 antigen or blocking buffer alone. Without washing or aspirating, clonal phage supematants were then added to the wells and incubated for a short time. Wells were then washed followed by detection of bound phage using a horse radish conjugated anti-M13 antibody. Clonal phage of interest were then sent for sequence analysis.

[2] = target: T1, Anti-CD28 Fab (SEQ ID NOs: 696, 697); assay: phage binding ELISA on captured anti-CD28 Fab, wells pre-incubated with CD28 antigen as competitor;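 note: crude clonal phage supernatants added to wells preloaded with CD28 antigen, bound phage read by HRP-conjugated anti-M13 antibody, control wells got blocking buffer alone without CD28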
Experimental: as §1, §2

[3] = target: T2, Anti-CD28 Fab (SEQ ID NOs: 696, 697); assay: phage binding ELISA on plate-bound anti-CD28 Fab, wells pre-incubated with CD28 antigen as competitor
T2 construct: Biotinylated and captured on neutravidin coated plates in the phage ELISA
T2 sequence (VH, as listed by the source, chain 1 of 2): as the sequence (VH, as listed by the source, chain 1 of 2) above
T2 sequence (VL, as listed by the source, chain 2 of 2): as the sequence (VL, as listed by the source, chain 2 of 2) above
Experimental: as §1, §2

[4] = target: T2, Anti-CD28 Fab (SEQ ID NOs: 696, 697); assay: phage binding ELISA, clonal phage on biotinylated anti-CD28 Fab captured on neutravidin plates;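 note: crude clonal phage supernatants added to wells pretreated with CD28 antigen or blocking buffer only, bound phage detected by HRP-linked anti-M13 antibody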
Experimental: as §1, §2

[5] = target: T3, Anti-CD28 Fab (SEQ ID NOs: 696, 697); assay: phage binding ELISA on Fab coated plate; wells pre-incubated with CD28 antigen as competitor
T3 construct: In the phage ELISA the Fab was biotinylated and captured on neutravidin coated plates
T3 sequence (VH, as listed by the source, chain 1 of 2): as the sequence (VH, as listed by the source, chain 1 of 2) above
T3 sequence (VL, as listed by the source, chain 2 of 2): as the sequence (VL, as listed by the source, chain 2 of 2) above
Experimental: as §1, §2

[6] = target: T3, Anti-CD28 Fab (SEQ ID NOs: 696, 697); assay: phage binding ELISA; biotinylated Fab on neutravidin plate, clonal phage supernatant, anti-M13 HRP detection;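 note: phage from clones picked after panning, added to wells pre-incubated with blocking buffer with or without CD28 antigen, then briefly incubated and washed before detection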
Experimental: as §1, §2

[7] = target: T4, Anti-CD28 Fab (SEQ ID NOs: 696, 697); assay: phage ELISA; biotinylated anti-CD28 Fab on neutravidin plate, bound phage detected with anti-M13-HRP
T4 construct: In the phage ELISA the Fab was biotinylated and captured on neutravidin coated plates
T4 sequence (VH, as listed by the source, chain 1 of 2): as the sequence (VH, as listed by the source, chain 1 of 2) above
T4 sequence (VL, as listed by the source, chain 2 of 2): as the sequence (VL, as listed by the source, chain 2 of 2) above
Experimental: as §1, §2

[8] = target: T4, Anti-CD28 Fab (SEQ ID NOs: 696, 697); assay: phage ELISA on captured anti-CD28 Fab; competitor: CD28 antigen pre-incubated in the well
Experimental: as §1, §2

| Binder | Anti-CD28 Fab signal in the presence of CD28 [3] | Anti-CD28 Fab (SEQ ID NOs: 696, 697) signal [4] | Anti-CD28 Fab signal in the presence of CD28 [5] | Anti-CD28 Fab (SEQ ID NOs: 696, 697) signal [6] | also measured |
| --- | --- | --- | --- | --- | --- |
| B1 | – | – | – | – | Anti-CD28 Fab (SEQ ID NOs: 696, 697) signal [1]: 1.75; Anti-CD28 Fab signal in the presence of CD28 [2]: 0.06 |
| B2 | 0.07 | 1.74 | – | – | – |
| B3 | – | – | 0.07 | 1.72 | – |
| B4 | – | – | 0.07 | 1.73 | – |
| B5 | – | – | – | – | Anti-CD28 Fab signal (phage binding ELISA) [7]: 1.71; Anti-CD28 Fab signal in the presence of CD28 [8]: 0.1 |
| B6 | 0.07 | 1.75 | – | – | – |
| B7 | 0.07 | 1.73 | – | – | – |
| B8 | 0.08 | 1.75 | – | – | – |
| B9 | – | – | 0.07 | 1.72 | – |
| B10 | – | – | – | – | Anti-CD28 Fab signal (phage binding ELISA) [7]: 1.71; Anti-CD28 Fab signal in the presence of CD28 [8]: 0.07 |
| B11 | – | – | 0.08 | 1.72 | – |
| B12 | – | – | – | – | Anti-CD28 Fab signal (phage binding ELISA) [7]: 1.71; Anti-CD28 Fab signal in the presence of CD28 [8]: 0.11 |
| B13 | – | – | 0.07 | 1.72 | – |
| B14 | – | – | – | – | Anti-CD28 Fab (SEQ ID NOs: 696, 697) signal [1]: 1.76; Anti-CD28 Fab signal in the presence of CD28 [2]: 0.07 |
| B15 | – | – | 0.08 | 1.73 | – |
| B16 | – | – | – | – | Anti-CD28 Fab signal (phage binding ELISA) [7]: 1.71; Anti-CD28 Fab signal in the presence of CD28 [8]: 0.07 |
| B17 | 0.09 | 1.73 | – | – | – |
| B18 | – | – | – | – | Anti-CD28 Fab (SEQ ID NOs: 696, 697) signal [1]: 1.75; Anti-CD28 Fab signal in the presence of CD28 [2]: 0.07 |
| B19 | 0.07 | 1.73 | – | – | – |

| Binder | Anti-CD28 Fab signal in the presence of CD28 [3] | Anti-CD28 Fab (SEQ ID NOs: 696, 697) signal [4] | Anti-CD28 Fab signal in the presence of CD28 [5] | Anti-CD28 Fab (SEQ ID NOs: 696, 697) signal [6] | also measured |
| --- | --- | --- | --- | --- | --- |
| B20 | – | – | – | – | Anti-CD28 Fab signal (phage binding ELISA) [7]: 1.71; Anti-CD28 Fab signal in the presence of CD28 [8]: 0.06 |
| B21 | – | – | 0.09 | 1.73 | – |
| B22 | 0.06 | 1.73 | – | – | – |
| B23 | 0.07 | 1.73 | – | – | – |
| B24 | – | – | 0.06 | 1.72 | – |
| B25 | – | – | – | – | Anti-CD28 Fab (SEQ ID NOs: 696, 697) signal [1]: 1.75; Anti-CD28 Fab signal in the presence of CD28 [2]: 0.1 |
| B26 | – | – | 0.06 | 1.73 | – |
| B27 | – | – | 0.09 | 1.72 | – |
| B28 | – | – | 0.06 | 1.72 | – |
| B29 | – | – | 0.06 | 1.73 | – |
| B30 | 0.06 | 1.75 | – | – | – |
| B31 | 0.06 | 1.74 | – | – | – |
| B32 | – | – | – | – | Anti-CD28 Fab (SEQ ID NOs: 696, 697) signal [1]: 1.75; Anti-CD28 Fab signal in the presence of CD28 [2]: 0.06 |
| B33 | 0.06 | 1.75 | – | – | – |
| B34 | – | – | 0.1 | 1.73 | – |
| B35 | 0.09 | 1.75 | – | – | – |
| B36 | – | – | – | – | Anti-CD28 Fab signal (phage binding ELISA) [7]: 1.71; Anti-CD28 Fab signal in the presence of CD28 [8]: 0.06 |
| B37 | 0.08 | 1.73 | – | – | – |
